T1: human MAdCAM expressed on cells (human, UniProt Q13477 19-382)
T1 construct: whole, on cells; also called MADCAM1
T1 sequence (looked up): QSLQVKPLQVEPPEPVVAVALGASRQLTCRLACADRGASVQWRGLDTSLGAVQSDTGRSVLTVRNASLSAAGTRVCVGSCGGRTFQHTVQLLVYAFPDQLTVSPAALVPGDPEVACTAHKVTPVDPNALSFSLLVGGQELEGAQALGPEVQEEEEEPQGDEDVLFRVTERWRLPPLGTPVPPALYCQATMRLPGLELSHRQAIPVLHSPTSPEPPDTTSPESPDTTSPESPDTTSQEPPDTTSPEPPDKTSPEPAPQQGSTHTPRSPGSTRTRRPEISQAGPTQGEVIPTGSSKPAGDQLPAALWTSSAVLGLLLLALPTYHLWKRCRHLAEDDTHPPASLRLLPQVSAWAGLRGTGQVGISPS

T2: mouse MAdCAM expressed on cells (mouse, UniProt Q61826 22-405)
T2 construct: whole, on cells
T2 sequence (looked up): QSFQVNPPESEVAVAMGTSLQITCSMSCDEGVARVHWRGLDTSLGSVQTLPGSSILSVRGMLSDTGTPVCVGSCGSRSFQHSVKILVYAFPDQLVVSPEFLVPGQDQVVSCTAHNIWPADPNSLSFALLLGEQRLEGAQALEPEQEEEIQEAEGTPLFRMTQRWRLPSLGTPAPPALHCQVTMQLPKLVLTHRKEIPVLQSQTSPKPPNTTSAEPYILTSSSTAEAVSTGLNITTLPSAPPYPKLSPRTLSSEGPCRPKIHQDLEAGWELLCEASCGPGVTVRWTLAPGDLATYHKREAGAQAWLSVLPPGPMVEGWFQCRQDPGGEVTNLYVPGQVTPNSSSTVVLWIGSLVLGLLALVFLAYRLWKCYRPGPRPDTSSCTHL

B1: MAdCAM Antibody Table 1 Clone 1 (scFv)
scFv: EVQLLESGGGLVQPGGSLRLSCAASGFTFSSYGMHWVRQAPGKGLEWVAVISDDGSDKYYADSVKGRFTISRDNSKNTLYLQMNSLRAEDTAVYYCTTSKYYYYYGMDVWGQGTTVTVSSGGGGSGGGGSGGGGSGGGGSDIQMTQSPSSLSASVGDRVTITCQASQDISKSLNWYQQKPGKAPKLLIYAASSLQSGVPSRFSGSGSGTDFTLTISSLQPEDFATYYCQQGYSTPLTFGGGTKVEIK
B2: MAdCAM Antibody Table 1 Clone 25 (scFv)
scFv: QVQLVQSGAEVKKPGASVKVSCKASGYTLTTWYMYWVRQAPGQGLEWMGWINPNRGATNYAQKFQGRVTMTRDTSTSTVYMELSSLRSEDTAVYYCAKGDLWGAMDVWGQGTLVTVSSGGGGSGGGGSGGGGSGGGGSDIQMTQSPSSLSASVGDRVTITCRASDNIGSWLAWYQQKPGKAPKLLIYAASSLQSGVPSRFSGSGSGTDFTLTISSLQPEDFATYYCQQGYSTPPTFGQGTKVEIK
B3: MAdCAM Antibody Table 1 Clone 30 (scFv)
scFv: B2 scFv
B4: MAdCAM Antibody Table 1 Clone 8 (scFv)
scFv: EVQLLESGGGLVQPGGSLRLSCAASGFMFGDYAMHWVRQAPGKGLEWVSAISGSGGSTYYADSVKGRFTISRDNSKNTLYLQMNSLRAEDTAVYYCAKDLVVAGIWYFDLWGRGTLVTVSSGGGGSGGGGSGGGGSGGGGSDIQMTQSPSSLSASVGDRVTITCRASQGISNNLNWYQQKPGKAPKLLIYDASSLESGVPSRFSGSGSGTDFTLTISSLQPEDFATYYCQQTHSFPSTFGQGTKLEIK
B5: MAdCAM Antibody Table 2 Clone 81 (antibody, human IgG1, V domains shown)
VH: EVQLLESGGGLVKPGGSLRLSCAASGFAFSSHWMHWVRQAPGKGLEWVAGTSGSGESRDYADFVKGRFTISRDDSKNTLYLQMNSLKTEDTAVYYCARETYYYYYMDVWGKGTTVTVSS
VL: DIQMTQSPSSLSASVGDRVTITCRASQGISNYLAWYQQKPGKAPKLLIYDAANLEGGVPSRFSGSGSGTDFTLTISSLQPEDFATYYCQQSDIFPPTFGQGTKVEIK
B6: MAdCAM Antibody Table 2 Clone 82 (antibody, human IgG1, V domains shown)
VH: QVQLVQSGAEVKKPGASVKVSCKASGYTFTRHWIHWVRQAPGQGLEWMGWINVKTGGAGYAQKFQGRVTMTRDTSTSTVYMELSSLRSEDTAVYYCARESSGWYGTDVWGQGTTVTVSS
VL: DIQMTQSPSSLSASVGDRATITCRASQSISNYLAWYQQKPGKAPKLLIYAASSLQSGVPSRFSGSGSGTDFTLTISSLQPEDFATYYCQQSNSFPLTFGGGTKVEIK
B7: MAdCAM Antibody Table 2 Clone 83 (antibody, human IgG1, V domains shown)
VH: EVQLLESGGGLVQPGGSLRLSCAASGFTFSSYWMHWVRQAPGKGLEWVAAISYDGKYKDYEDSVKGRFTISRDNSKNTLYLQMNSLRAEDTAVYYCARENKQWLASFDYWGQGTLVTVSS
VL: DIQMTQSPSSLSASVGDRVTITCQASQDISNFVNWYQQKPGKAPKLLIYAANLRSGVPSRFSGSGSGTDFTLTISSLQPEDFATYYCQQANSFPVTFGPGTKVDIK
B8: MAdCAM Antibody Table 2 Clone 84 (antibody, human IgG1, V domains shown)
VH: QVQLVQSGAEVKKPGASVKVSCKASGGTFSSSAISWVRQAPGQGLEWMGWISAYNGYTNYAQKFQGRVTMTRDTSTSTVYMELSSLRSEDTAVYYCASRVHSGGSYPDDYWGQGTLVTVSS
VL: DIQMTQSPSSLSASVGDRVTITCQASEHIYNYLNWYQQKPGKAPKLLIYAASSLQSGVPSRFSGSGSGTDFTLTISSLQPEDFATYYCQQTDSIPITFGQGTKVEIK

Each binder was assayed against T1, human MAdCAM expressed on cells (assay: cell binding).
B1: binds.

These binders were tested against T2, mouse MAdCAM expressed on cells (assay: cell binding).
B2: no binding. B3: no binding. B4: no binding.

Molecular target: T1, human MAdCAM expressed on cells
Assay: cell binding
Remark: another data set of the same source
B5: binds. B6: binds. B7: binds. B8: binds.

Molecular target: T2, mouse MAdCAM expressed on cells
Assay: cell binding
Remark: another data set of the same source
B5: binds. B6: binds. B7: binds. B8: binds.
